For “Polycomb Repressive Complex 2 (PRC2), purified through FLAG-tagged human EED from HeLa or HEK293T nuclear extract”, the “Apparent Vmax of PRC2 methyltransferase reaction at varying mononucleosome concentrations” value (H3.3K27M peptide (18-37)) was “showed a reduction in the apparent Vmax by addition of the K27M peptide” and the “Apparent Vmax of PRC2 methyltransferase reaction at varying mononucleosome concentrations” value (H3K27ac peptide (18-37)) was “PRC2 reactions that contained H3K27ac peptide of identical peptide concentrations did not decrease the apparent Vmax of the reaction”.

Chain of H3.3K27M peptide (18-37) (chain, as listed by the source): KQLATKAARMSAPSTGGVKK
